maleimide monolayer = not defined here
B1: Ac-GAGDSC (SEQ ID NO: 30), immobilized on a monolayer array (peptide)
peptide: Ac-GAGDSC(maleimide monolayer)-NH2
modifications: not fully specified; printed as Ac-GAGDSC; reading uncertain
notes: also called 0.5% Ac-GAGDSC; Ac-GXGDSC with X = Ala
B2: Ac-GLGDSC (SEQ ID NO: 34), immobilized on a monolayer array (peptide)
peptide: Ac-GLGDSC(maleimide monolayer)-NH2
modifications: not fully specified; printed as Ac-GLGDSC; reading uncertain
notes: also called 0.5% Ac-GLGDSC; Ac-GXGDSC with X = Leu
B3: Ac-GIGDSC (SEQ ID NO: 33), immobilized on a monolayer array (peptide)
peptide: Ac-GIGDSC(maleimide monolayer)-NH2
modifications: not fully specified; printed as Ac-GIGDSC; reading uncertain
notes: also called 0.5% Ac-GIGDSC; Ac-GXGDSC with X = Ile
B4: Ac-GVGDSC (SEQ ID NO: 32), immobilized on a monolayer array (peptide)
peptide: Ac-GVGDSC(maleimide monolayer)-NH2
modifications: not fully specified; printed as Ac-GVGDSC; reading uncertain
notes: also called 0.5% Ac-GVGDSC; Ac-GXGDSC with X = Val
B5: Ac-GXGDSC (SEQ ID NO: 26) with X = W, immobilized on a monolayer array (peptide)
peptide: Ac-GWGDSC(maleimide monolayer)-NH2
modifications: reading uncertain; also: printed as Ac-GXGDSC
notes: Member of the Ac-GXGDSC library
B6: Ac-GXGDSC (SEQ ID NO: 26) with X = Q, immobilized on a monolayer array (peptide)
peptide: Ac-GQGDSC(maleimide monolayer)-NH2
modifications: not fully specified; printed as Ac-GXGDSC; reading uncertain
notes: as for B5
B7: Ac-GXGDSC (SEQ ID NO: 26) with X = F, immobilized on a monolayer array (peptide)
peptide: Ac-GFGDSC(maleimide monolayer)-NH2
modifications: not fully specified; printed as Ac-GXGDSC; reading uncertain
notes: as for B5
B8: Ac-GXGDSC (SEQ ID NO: 26) with X = T, immobilized on a monolayer array (peptide)
peptide: Ac-GTGDSC(maleimide monolayer)-NH2
modifications: not fully specified; printed as Ac-GXGDSC; reading uncertain
notes: as for B5
B9: Ac-GXGDSC (SEQ ID NO: 26) with X = P, immobilized on a monolayer array (peptide)
peptide: Ac-GPGDSC(maleimide monolayer)-NH2
modifications: not fully specified; printed as Ac-GXGDSC; reading uncertain
notes: as for B5
B10: Ac-GKGDSC (SEQ ID NO: 31), immobilized on a monolayer array (peptide)
peptide: Ac-GKGDSC(maleimide monolayer)-NH2
modifications: not fully specified; printed as Ac-GKGDSC; reading uncertain
notes: also called 0.5% Ac-GKGDSC; Ac-GXGDSC with X = Lys
B11: Ac-GGGDSC (SEQ ID NO: 29), immobilized on a monolayer array (peptide)
peptide: Ac-GGGDSC(maleimide monolayer)-NH2
modifications: not fully specified; printed as Ac-GGGDSC; reading uncertain
notes: also called 0.5% Ac-GGGDSC; Ac-GXGDSC with X = Gly
B12: Ac-GXGDSC (SEQ ID NO: 26) with X = S, immobilized on a monolayer array (peptide)
peptide: Ac-GSGDSC(maleimide monolayer)-NH2
modifications: not fully specified; printed as Ac-GXGDSC; reading uncertain
notes: as for B5
B13: Ac-GXGDSC (SEQ ID NO: 26) with X = M, immobilized on a monolayer array (peptide)
peptide: Ac-GMGDSC(maleimide monolayer)-NH2
modifications: not fully specified; printed as Ac-GXGDSC; reading uncertain
notes: as for B5
B14: Ac-GXGDSC (SEQ ID NO: 26) with X = H, immobilized on a monolayer array (peptide)
peptide: Ac-GHGDSC(maleimide monolayer)-NH2
modifications: not fully specified; printed as Ac-GXGDSC; reading uncertain
notes: as for B5
B15: Ac-GXGDSC (SEQ ID NO: 26) with X = D, immobilized on a monolayer array (peptide)
peptide: Ac-GDGDSC(maleimide monolayer)-NH2
modifications: not fully specified; printed as Ac-GXGDSC; reading uncertain
notes: as for B5

Target: T1, human αIIbβ3 integrin on transfected CHO K1 cells (human, UniProt P08514 32-1039; P05106 27-788)
T1 construct: whole, on cells; CHO K1 cells transfected with human αIIb and β3 cDNA; about 30% of the cells expressed the receptor; also called platelet receptor; platelet integrin
Experiment: Ac-GXGDSC peptide array, adhesion of αIIbβ3 CHO K1 cells
Description: After 15-minute of incubation, cells (200,000/mL) were added to substrates in 24-well culture plates. After 2 hour incubation at 37° C. and 5% CO₂, media was exchanged for F-12K medium supplemented with 10% FBS, 1× penicillin/streptomycin and cRGDFG (SEQ ID NO: 12) (300 μM). After 2 hours, the substrates were washed gently with warm PBS, and adherent cells were immediately fixed with 4% formaldehyde for 30 minutes, visualized with a 20× objective of a Zeiss Axiovert 200 inverted microscope, and photographed. For cell adhesion assays mediated by Ac-GXGDSC (SEQ ID NO: 26), αIIbβ3 CHO K1 cells were incubated on a 5×4 circle (1 mm diameter) array for 1 hour with serum-free F-12K medium supplemented with cRGDFG (SEQ ID NO: 12) (300 μM) and 1× penicillin/streptomycin, followed by media exchange to F-12K medium supplemented with 10% FBS, 1× penicillin/streptomycin and cRGDFG (SEQ ID NO: 12) (300 μM. The substrates were washed with warm PBS, and adherent cells were immediately fixed and permeabilized with 4% formaldehyde and 0.5% Triton-X for 30 minutes. Fixed cells were stained with DAPI, visualized and photographed with a 20× objective as described. The number of adherent cells per field of view was counted using Image J software. Cells were counted in at least three fields for each circle, and each experiment was repeated 3 times. The degree of adhesion is reported as a percentage of cells that adhere relative to control experiments with the peptide Ac-GRGDSC (SEQ ID NO: 28).
To further assay the binding of peptide ligands to the […] integrin for XGD peptide ligands, an array was used to assess the adhesion of cells to peptides having the arginine residue substituted with each amino acid other than cysteine (e.g., A, D, E, F, G, H, I, K, L, M, N, P, Q, R, S, T, V, W, and Y). The library of Ac-GXGDSC (SEQ ID NO: 26) peptides was synthesized and immobilized in an array with each peptide occupying a 1 mm diameter region of the monolayer (FIG. 61). A suspension of αIIbβ3 CHO K1 cells was applied to the entire array and cells were allowed to attach to regions presenting the various peptides. The substrates were then rinsed and stained with DAPI, and the cells were counted to determine the relative efficiency of cell attachment to peptides in the library.

Binder	binding result
B1	binds
B2	binds
B3	binds
B4	binds
B5	no binding
B6	no binding
B7	no binding
B8	no binding
B9	no binding
B10	binds
B11	binds
B12	no binding
B13	no binding
B14	no binding
B15	no binding

Source: patent publication US20120252730A1, “PLATELET AGGREGATION INHIBITORS” (UNIVERSITY OF CHICAGO, priority 2009, published 2012)
